Experimental data taken from patent US20200247886A1 (ZLIP, published 2020).
Like-named read-outs stand apart in the source and are kept apart here.

Columns and labels:
[1] = molecular target: T1, human CD47 expressed on cells (CD47 expressing CHO cells, Jurkat, HL60, DLD1, Raji) (human, UniProt Q08722 19-292); assay: IC50 (nM) Frequency as grade, blocking biotinylated SIRPa-Fc binding to DLD1 cells; legend +++: <1 nM
T1 construct: also called CHO-CD47; IAP

[2] = molecular target: T1, human CD47 expressed on cells (CD47 …); assay: flow cytometry on DLD1 cells, IgG, frequency
[3] = molecular target: T1, human CD47 expressed on cells (CD47 …); assay: IC50 (nM) MFI as grade, blocking biotinylated SIRPa-Fc binding to DLD1 cells; legend +: >20 nM
[4] = molecular target: T2, biotin labelled polyhistidine tagged CD47 protein (Novoprotein, Cat#321) (human, UniProt Q08722 19-139, biotin labelled (site not stated)); assay: IC50 (nM) as grade, Fab blocking biotinylated CD47 binding to SIRPα-CHO cells; legend +: >65 nM
T2 construct: Bought protein; also called biotinylated CD47; biotinylated human CD47 protein; not shown: polyhistidine tag

[5] = molecular target: T1, human CD47 expressed on cells (CD47 …); assay: EC50 (nM) as grade, flow cytometry, Fab on HL60 cells; legend +++: <1 nM
[6] = molecular target: T1, human CD47 expressed on cells (CD47 …); assay: EC50 (nM) as grade, flow cytometry, Fab on DLD1 cells; legend ++: >5 nM and <60 nM
[7] = molecular target: T1, human CD47 expressed on cells (CD47 …); assay: flow cytometry on human red blood cells, donor 2, MFI
[8] = molecular target: T1, human CD47 expressed on cells (CD47 …); assay: flow cytometry on human red blood cells, donor 1, MFI
[9] = molecular target: T1, human CD47 expressed on cells (CD47 …); assay: flow cytometry blocking assay on Raji cells, SIRPα is the blocked ligand, MFI
[10] = molecular target: T1, human CD47 expressed on cells (CD47 …); assay: flow cytometry on human platelets, donor 1, MFI
[11] = molecular target: T1, human CD47 expressed on cells (CD47 …); assay: flow cytometry on human platelets, donor 2, MFI
[12] = molecular target: T1, human CD47 expressed on cells (CD47 …); assay: IC50 as grade, SIRPα blocking on Raji cells (second part of the table); legend ++: >1 nM and <20 nM
CD47 on monkey RBC = molecular target: T3, CD47 on monkey RBC (Macaca fascicularis, UniProt A0A2K5X523); assay: flow cytometry on cynomolgus monkey red blood cells expressing CD47, MFI
T3 construct: native, on red blood cells; also called cynomolgus monkey red blood cells expressing CD47

[13] = molecular target: T1, human CD47 expressed on cells (CD47 …); assay: flow cytometry blocking assay on Raji cells, SIRPα is the blocked ligand, MFI; remark: listed apart in the source
[14] = molecular target: T1, human CD47 expressed on cells (CD47 …); assay: flow cytometry on human platelets, MFI
[15] = molecular target: T1, human CD47 expressed on cells (CD47 …); assay: flow cytometry on human red blood cells, MFI
[16] = molecular target: T1, human CD47 expressed on cells (CD47 …); assay: EC50 (nM) as grade, flow cytometry, Fab on DLD1 cells; legend +: >60 nM
[17] = molecular target: T2, biotin labelled polyhistidine tagged …; assay: IC50 (nM) as grade, Fab blocking biotinylated CD47 binding to SIRPα-CHO cells; legend ++: >10 nM and <65 nM
His-tagged CD47 [18] = molecular target: T4, His-tagged CD47 (Homo sapiens (Human), UniProt Q08722 19-139, limits assumed); assay: flow cytometry blocking assay: His-tagged CD47 with Fab on SIRPα-expressing CHO cells (SIRPα is the blocked ligand), anti-His-APC, frequency
T4 construct: not shown: His tag

His-tagged CD47 [19] = molecular target: T4, His-tagged CD47; assay: flow cytometry blocking assay: His-tagged CD47 with Fab on SIRPα-expressing CHO cells (SIRPα is the blocked ligand), anti-His-APC, MFI
His-tagged CD47 [20] = molecular target: T4, His-tagged CD47; assay: IC50 (nM) Frequency as grade, blocking His-tagged CD47 binding to SIRPα-CHO cells; legend +: >2.7 nM
His-tagged CD47 [21] = molecular target: T4, His-tagged CD47; assay: IC50 (nM) MFI as grade, blocking His-tagged CD47 binding to SIRPα-CHO cells; legend +++: <2 nM
[22] = molecular target: T1, human CD47 expressed on cells (CD47 …); assay: EC50 (nM) as grade, flow cytometry, Fab on DLD1 cells; legend +++: <5 nM

B1: ABU24 (IgG, chimeric version of the Fab) (antibody, V domains shown)
VH: EVQLQQPGTELVKPGASVKLSCKASGYTFTSYWMHWVKQRPGQGLEWIGNVVPNNDGTNYNEKFRNKATLTVDKSSSTAYMQLSSLTSEDSAVYYCAVTYFAYWGQGTLVTVSA
VL: DAVVTQESALTTSPGETVTLTCRSSTGAVSTSNYANWVQEKPDHLFTGLIGGTNNRAPGVPARFSGSLIGDKAALTITGAQTEDEAIYFCALWYSNHWVFGGGTKLTVL
IC50 [1]: < 1 nM
EC50 (read off the curve) [2]: ~10 nM
IC50 [3]: > 20 nM

B2: ABU24 (Fab) (Fab, V domains shown)
VH: EVQLQQPGTELVKPGASVKLSCKASGYTFTSYWMHWVKQRPGQGLEWIGNVVPNNDGTNYNEKFRNKATLTVDKSSSTAYMQLSSLTSEDSAVYYCAVTYFAYWGQGTLVTVSA
VL: DAVVTQESALTTSPGETVTLTCRSSTGAVSTSNYANWVQEKPDHLFTGLIGGTNNRAPGVPARFSGSLIGDKAALTITGAQTEDEAIYFCALWYSNHWVFGGGTKLTVL
notes: Phage-derived Fab: murine VL and VH fused to human CL and CH1
IC50 [4]: > 65 nM
EC50 [5]: < 1 nM
EC50 [6]: 5 to 60 nM

B3: H-ABU 10 (antibody, V domains shown)
VL: DIVMTQSPDSLAVSLGERATINCKSSQSLVSSSQKNYLAWYQQKPGQPPKLLIYWASVRDSGVPDRFSGSGSGTDFTLTISSLQAEDVAVYYCQQYYSYPLTFGQGTKVEIK
VH: QVQLVQSGAEVKKPGASVKVSCKASGYTFTDNYINWVRQAPGQRLEWMGWIYLGSGNTKYNEKFKGRVTITRDTSASTAYMELSSLRSEDTAVYYCARREERGFAPWGQGTLVTVSS
EC50 (read off the curve) [7]: ~3 nM
EC50 (read off the curve) [8]: ~3 nM
IC50 (read off the curve) [9]: ~1 nM
EC50 (read off the curve) [10]: ~0.6 nM
EC50 (read off the curve) [11]: ~0.6 nM
IC50 [12]: 1 to 20 nM

B4: H-ABU 9 (antibody, V domains shown)
VH: QVQLVQSGAEVKKPGASVKVSCKASGYTFTDLYINWVRQAPGQRLEWMGWIYLGSGNTKYNEKFKGRVTITRDTSASTAYMELSSLRSEDTAVYYCARREERGFAYWGQGTLVTVSS
VL: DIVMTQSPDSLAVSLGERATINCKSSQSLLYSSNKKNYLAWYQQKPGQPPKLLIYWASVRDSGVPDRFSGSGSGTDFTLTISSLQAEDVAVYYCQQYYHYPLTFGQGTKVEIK
IC50 (read off the curve) [9]: ~8 nM
EC50 (read off the curve) [10]: ~1 nM
IC50 [12]: 1 to 20 nM

B5: H-ABU41-IgG4-P (antibody)
light chain: DVQITQSPSSLSASVGDRVTITCRASKNIGKYLAWFQQKPGKTNKLLIYSGSTLQSGIPSRFSGSGSGTDFTLTISSLQPEDFATYYCQQHNEYPYTFGGGTKVEIK
heavy chain: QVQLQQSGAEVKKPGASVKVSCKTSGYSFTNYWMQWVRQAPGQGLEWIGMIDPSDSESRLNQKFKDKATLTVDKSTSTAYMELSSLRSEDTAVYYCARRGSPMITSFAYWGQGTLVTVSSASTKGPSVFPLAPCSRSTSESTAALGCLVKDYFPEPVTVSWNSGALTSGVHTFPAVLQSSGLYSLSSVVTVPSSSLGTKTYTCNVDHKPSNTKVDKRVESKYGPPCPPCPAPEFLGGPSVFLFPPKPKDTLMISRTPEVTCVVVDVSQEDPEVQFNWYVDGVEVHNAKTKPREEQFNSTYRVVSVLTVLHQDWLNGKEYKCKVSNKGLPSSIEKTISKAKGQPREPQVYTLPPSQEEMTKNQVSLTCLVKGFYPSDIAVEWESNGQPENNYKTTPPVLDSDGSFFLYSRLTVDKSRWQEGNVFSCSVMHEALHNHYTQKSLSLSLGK
EC50 (read off the curve) (CD47 on monkey RBC): ~0.1 µg/mL
IC50 (read off the curve) [13]: ~5 nM
EC50 (read off the curve) [14]: ~2 nM
EC50 (read off the curve) [15]: ~4 nM

B6: H-ABU41-IgG4-PE (antibody)
light chain: DVQITQSPSSLSASVGDRVTITCRASKNIGKYLAWFQQKPGKTNKLLIYSGSTLQSGIPSRFSGSGSGTDFTLTISSLQPEDFATYYCQQHNEYPYTFGGGTKVEIK
heavy chain: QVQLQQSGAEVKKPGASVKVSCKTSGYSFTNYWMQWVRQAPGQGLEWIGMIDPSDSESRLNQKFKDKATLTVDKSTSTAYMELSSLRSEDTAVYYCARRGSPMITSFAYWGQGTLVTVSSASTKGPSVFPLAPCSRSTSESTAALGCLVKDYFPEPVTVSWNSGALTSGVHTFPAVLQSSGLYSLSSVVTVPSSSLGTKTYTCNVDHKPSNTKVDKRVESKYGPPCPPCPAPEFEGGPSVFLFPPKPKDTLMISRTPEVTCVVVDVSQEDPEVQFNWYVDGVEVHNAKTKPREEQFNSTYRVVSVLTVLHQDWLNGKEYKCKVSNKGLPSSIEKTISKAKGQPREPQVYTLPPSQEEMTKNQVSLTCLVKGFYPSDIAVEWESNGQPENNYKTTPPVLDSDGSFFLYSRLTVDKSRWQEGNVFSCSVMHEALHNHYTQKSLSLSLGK
EC50 (read off the curve) (CD47 on monkey RBC): ~0.1 µg/mL
IC50 (read off the curve) [13]: ~3 nM
EC50 (read off the curve) [14]: ~2 nM
EC50 (read off the curve) [15]: ~4 nM

B7: ABU11 (Fab) (Fab, V domains shown)
VH: EVQLQQPGAELVRPGSSVKLSCKASGYSFTTYWMHWVKQRPGQGLEWIGNINPSSGDSHYNEKFKSKATLTVDKSSSTAYLQLNSLTSEDSAVYYCARDYYGAYWGHGTLVTVSA
VL: DIQMTQSPASLSASVGETVTITCRASENVYSYLAWYQQKQGKSPQLLVYKANTLAEGVPSRFSGSGSGTQFSLKINSLQPEDFGTYYCQHHYGTPLTFGSGTKLEIK
notes: as for B2
EC50 [16]: > 60 nM
IC50 [17]: 10 to 65 nM
EC50 [5]: < 1 nM

B8: ABU8 (Fab) (Fab, V domains shown)
VH: EVQLQQSGTELVKPGASVKLSCKASGYTFISYWMHWVKQRPGQGLEWIGNINPSSGNTNYNEKFKTKATLTVDKSSSTAYMQLSSLTSEDSAVYYCVRDYYGNYWGQGTTVTVSS
VL: DIQMTQSPASLSASVGETVTITCRASENIYSYLAWYQQKQGKSPQLLVYNAKTLAEGVPSRFSGSGSGTQFSLKIKSLQPEDFGSYYCQHHYGTPLTFGGGTKLELK
IC50 [17]: 10 to 65 nM
EC50 [5]: < 1 nM
EC50 [6]: 5 to 60 nM

B9: ABU40 (IgG, chimeric version of the Fab) (antibody, V domains shown)
VH: EVQLQQPGTELVKPGASVKLSCKASGYSFTTYWMHWVKQRPGQGLEWIGNINPSSGDSHYNEKFKSKATLTVDKSSSTAYMQLNSLTSEDSAVYYCARDYYGAYWGHGTLVTVSA
VL: DIQMTQSPASLSASVGETVTITCRASENIYSYLAWYQQKQGKSPQLLVYNAKTLAEGVPSRFSGSGSGTQFSLKINSLQPEDFGSYYCQHHYGTPLTFGAGTKLELK
IC50 [1]: < 1 nM
EC50 (read off the curve) [2]: ~7 nM
IC50 [3]: > 20 nM

B10: ABU40 (Fab) (Fab, V domains shown)
VH: EVQLQQPGTELVKPGASVKLSCKASGYSFTTYWMHWVKQRPGQGLEWIGNINPSSGDSHYNEKFKSKATLTVDKSSSTAYMQLNSLTSEDSAVYYCARDYYGAYWGHGTLVTVSA
VL: DIQMTQSPASLSASVGETVTITCRASENIYSYLAWYQQKQGKSPQLLVYNAKTLAEGVPSRFSGSGSGTQFSLKINSLQPEDFGSYYCQHHYGTPLTFGAGTKLELK
notes: as for B2
IC50 (read off the curve) (His-tagged CD47 [18]): ~3 nM
IC50 [17]: 10 to 65 nM
EC50 [5]: < 1 nM
IC50 (read off the curve) (His-tagged CD47 [19]): ~2 nM
IC50 (His-tagged CD47 [20]): > 2.7 nM
EC50 [6]: 5 to 60 nM
IC50 (His-tagged CD47 [21]): < 2 nM

B11: ABU16 (Fab) (Fab, V domains shown)
VH: RVQLQQSGAELVRPGTSVKVSCKASAYAFTNYLIEWVKKRPGQGLEWIGVINPGSGGTNYNEKFKGKATLTADKSSSTAYMQLSSLTSEDSAVYFCARGDGYGSLFAYWGQGTLVTVSA
VL: RHCFNQSPAIMSASPGEKVTMTCSASSSVSYMHWYQQKSGTSPKRWIYDTSNLASGVPVRFSGSGSGTSYSLTISRMEAEDAATYYCQQWSNYPFTFGSGTKLELK
notes: as for B2
IC50 [4]: > 65 nM
EC50 [22]: < 5 nM
EC50 [5]: < 1 nM
